Paper doi:10.1101/2024.05.28.596263

Tests used:
Test in all cases: cryo-EM structure
[1] = biological target: dephosphorylated CFTR of the P-ATP + AMP-PNP sample (human) (UniProt P13569)
[2] = biological target: fully-phosphorylated CFTR carrying the ATP-hydrolysis-disrupting E1371Q mutation (human) (UniProt P13569)
[3] = biological target: recombinant human CFTR (cystic fibrosis transmembrane conductance regulator), wild type, dephosphorylated (human) (UniProt P13569)

stoichiometry N (PKA-C per CFTR) [1]: 1
stoichiometry N (PKA-C per CFTR) [2]: 1
stoichiometry N (PKA-C per CFTR) [3]: 2
Substance: protein kinase A catalytic subunit purified from bovine heart (from UniProt P00517 1-351) (enzyme)
